From patent publication US20260258410

Test system: T1, ADAR2 R2D E488Q (dsRBD2 + deaminase domain) E488Q (Homo sapiens), P78563-2
T1 sequence: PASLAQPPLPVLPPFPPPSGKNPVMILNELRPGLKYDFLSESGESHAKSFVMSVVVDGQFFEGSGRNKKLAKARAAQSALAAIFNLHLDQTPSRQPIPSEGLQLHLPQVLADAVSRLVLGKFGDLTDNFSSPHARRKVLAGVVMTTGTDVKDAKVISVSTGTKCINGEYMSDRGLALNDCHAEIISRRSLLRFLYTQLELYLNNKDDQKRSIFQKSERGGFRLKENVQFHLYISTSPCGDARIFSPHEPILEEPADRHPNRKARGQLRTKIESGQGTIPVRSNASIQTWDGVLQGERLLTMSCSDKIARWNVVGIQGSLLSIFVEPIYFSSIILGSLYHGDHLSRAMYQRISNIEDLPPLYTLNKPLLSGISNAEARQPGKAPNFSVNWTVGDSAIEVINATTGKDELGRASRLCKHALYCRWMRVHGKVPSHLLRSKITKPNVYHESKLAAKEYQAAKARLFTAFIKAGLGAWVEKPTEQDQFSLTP
Assay: EMSA
Details: 8-azanebularine at position 13 of SEQ 7; protein 0.25-256 nM

GCUCGCGAUGCGNGAGGGCUCUGAUAGCUACG / CGUAGCUAUCAGAGCCCCCCGGCAUCGCGAGC [32 bp GLI1 GG RNA with 8-azanebularine]
Kd: 6 nM
